± gives the standard deviation of the averaged measurements.

Experimental findings from the supplement of paper PMC10126150 are described below.
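Also: ATP exposure 15 min at 22 °C before imaging.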

The series concerns ATP. Briefly: switch fluorescence ratio, 500 uM ATP over buffer (Cy3 cluster intensity, sum of 5 cycles each) (fold (ratio)); higher = stronger signal-on switching upon ATP binding; sequences stand for … in TCGTCGGCAGCGTCAGATGTGTATAAGAGACAGTTTTTTTTTTTTTTTTTTTTTTTTT…TC. To be noted: aptamer strand: ATP DNA aptamer (quencher-CACCTGGGGGAGTATTGCGGAGGAAGG + anchor), 100 nM annealed; ATP concentration: 500 uM. In short, it runs like this: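 Values give the fluorescence ratio for each switch-domain sequence, averaged from per-cluster ratios of summed target-cycle to summed buffer-cycle Cy3 intensity. The Cy3-labelled switching-strand clusters sat on a modified Illumina MiSeq flow-cell, were annealed to 100 nM quencher-labelled ATP aptamer, and were imaged in selection buffer, then after 15 min with 500 uM ATP at 22 °C. Five cycles ran with NaOH stripping and re-annealing between them, and clusters outside 100-1000 RFU were excluded.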
As to TTTATAATTG, the switch fluorescence ratio is 1.03 ± 0.028. In the case of GGGACGATGG, the switch fluorescence ratio came out at 0.9857 ± 0.0013. For TCGTTCGTCG, the switch fluorescence ratio came to 1.04 ± 0.06.

As for CCTTATAGTT, the switch fluorescence ratio is 0.995 ± 0.023. On to TTGCGACACC, for which the switch fluorescence ratio was determined as 1.06 ± 0.042.

Take TAGCTTCTCC: the switch fluorescence ratio turned out to be 1.34 ± 0.033. The result for CGGGGAAACA reads 0.9943 ± 0.0077. For TTAAGGTTAG, the switch fluorescence ratio stood at 0.976 ± 0.024. For the sequence GGGGATGTTA, the switch fluorescence ratio came to 1.01 ± 0.026. As to CGTGCCATAG, the switch fluorescence ratio is 1 ± 0.015. On to TTATGAATTT, for which the switch fluorescence ratio is 0.98 ± 0.026.

On to CCGCTGGATG, for which the switch fluorescence ratio came to 1.202 ± 0.011. Take TCCTAAACGG: the switch fluorescence ratio is 0.988 ± 0.03.

TCGGCGTAAG: the switch fluorescence ratio amounted to 0.998 ± 0.03.

For TCCAATGATG, the switch fluorescence ratio was 1.03 ± 0.018. As for TCTTATTTGG, the switch fluorescence ratio turned out to be 1.01 ± 0.05. For GCTAAACGAT, the switch fluorescence ratio was found to be 1.03 ± 0.055. Regarding TGAGGGTACA, the switch fluorescence ratio worked out at 0.984 ± 0.017. Turning to TTCATTGTCG, the switch fluorescence ratio came out at 0.929 ± 0.062. Regarding TCAGTAGATC, the switch fluorescence ratio was found to be 1.02 ± 0.044.

Regarding TAGATGTGTT, the switch fluorescence ratio amounted to 1.01 ± 0.023. With CGAACCGTCA, the switch fluorescence ratio is 1.08 ± 0.028. The value for CCATGGCCTG was 0.97 ± 0.042; that for AGTTTACGTG was 1 ± 0.0033. As to GGAAAGAACA, the switch fluorescence ratio was 0.9817 ± 0.0079.

Regarding AAAAAATTCG, the switch fluorescence ratio worked out at 1.03 ± 0.017. Consider AGGGGAGTAG, for which the switch fluorescence ratio is 0.99 ± 0.022. As for ACCGGGTGCA, the switch fluorescence ratio was 1.36 ± 0.48. On to GGGGGATT, for which the switch fluorescence ratio was determined as 0.996 ± 0.02.

ATCTGATAGC: the switch fluorescence ratio was determined as 0.955 ± 0.047.

Regarding GTTATCTCTT, the switch fluorescence ratio was 0.996 ± 0.033. The result for AGAGTAAAGC reads 0.996 ± 0.02; that for GTTGATCCTT, 0.9987 ± 0.0075; that for AGGTCAGCTT, 1.01 ± 0.04. Turning to CTGGGTGGGG, the switch fluorescence ratio is 1 ± 0.013. CTGATTTTAT: the switch fluorescence ratio amounted to 0.9856 ± 0.0013. Take CTAAGGGAAG: the switch fluorescence ratio was 0.9781 ± 0.00035. For TGGAGCCAGT, the switch fluorescence ratio came to 1.01 ± 0.041. The value for TCTTTTTCCT was 1.045 ± 0.0054; that for AAGTTCCTTC was 1.05 ± 0.036. The result for AACCTTGTCC reads 1.61 ± 0.11; that for TCTGAAGATT, 0.999 ± 0.016.

Regarding ATGAGTGGTG, the switch fluorescence ratio was found to be 1.019 ± 0.0077. Turning to AGATTCGGTC, the switch fluorescence ratio was determined as 1 ± 0.018. For the sequence TGCTTATGGG, the switch fluorescence ratio was found to be 0.965 ± 0.016. Consider CGTTGTTCGA, for which the switch fluorescence ratio turned out to be 1.02 ± 0.012. TGGGCGGGTT: the switch fluorescence ratio came out at 0.989 ± 0.032. In the case of GGAGGCGGGA, the switch fluorescence ratio turned out to be 1.02 ± 0.045. Consider ATTTGGGAGA, for which the switch fluorescence ratio was found to be 0.978 ± 0.042. For TTGATGAAGA, the switch fluorescence ratio came to 1.01 ± 0.036.

Take AGCGGGGGAT: the switch fluorescence ratio turned out to be 1.01 ± 0.027. Take CGGGTTGGGG: the switch fluorescence ratio was 1 ± 0.016. The value for TACTTTTTGG was 0.9872 ± 0.0092; that for GGTACTGGAG was 1.04 ± 0.034; that for TTTACGGGGC was 1 ± 0.017.

As to CATTCCGGGA, the switch fluorescence ratio came to 1.63 ± 0.72. Turning to TCATTTAAGA, the switch fluorescence ratio came out at 0.954 ± 0.014. As to TGAGTGTGTT, the switch fluorescence ratio stood at 0.962 ± 0.026.

For ATAAAGCGGC, the switch fluorescence ratio turned out to be 0.994 ± 0.047. Regarding AAGTAGTTTC, the switch fluorescence ratio was 1.01 ± 0.018. Consider TTAGGGTTTG, for which the switch fluorescence ratio was found to be 0.995 ± 0.029. CAGTCTATCA: the switch fluorescence ratio stood at 0.972 ± 0.029. As to CCCTATCAAT, the switch fluorescence ratio came out at 1.1 ± 0.038. The value for TTAGAAGTCA was 1.0063 ± 0.00067. Regarding CATGTTTTGC, the switch fluorescence ratio is 1.01 ± 0.065. The value for TCGAGGCTGT was 1.18 ± 0.05; that for ACTTGGGGAG was 1 ± 0.014; that for CATTGTGTAT was 0.975 ± 0.029. Regarding GCGCGGCTTC, the switch fluorescence ratio came to 1.03 ± 0.034. In the case of ACGGCTGTTC, the switch fluorescence ratio is 1.01 ± 0.027. The value for AGCGTCATGC was 1.04 ± 0.048; that for GAATTTGTGA was 0.98 ± 0.035. The value for GCGATCGTTT was 0.992 ± 0.011. Consider GTGCCGGGTT, for which the switch fluorescence ratio came to 1.03 ± 0.066. Consider TCGGTTTTAC, for which the switch fluorescence ratio worked out at 1.033 ± 0.0061. The value for TTCGAGTTTT was 0.9669 ± 0.00099; that for GTGGGGGGTT was 0.993 ± 0.026. The value for TTTTACAGTT was 1.02 ± 0.023.
